{
  "source": "patent US20220235144A1",
  "about": "(QILU PUGET SOUND BIOTHERAPEUTICS, published 2022)",
  "binders": {"B1": {"name": "Ab24_G1AAA (antibody, human IgG1, kappa, L234A L235A)", "heavy": "EVQLVESGGGLVKPGGSLRLSCAASGFTFSSYVMSWVRQTPGKGLEWVATISSGGTYTYYPDSVKGRFTLSRDNAKNSLYLQMNSLRAEDTAVYYCASQLTGSEFDYWGQGTTVTVSSASTKGPSVFPLAPSSKSTSGGTAALGCLVKDYFPEPVTVSWNSGALTSGVHTFPAVLQSSGLYSLSSVVTVPSSSLGTQTYICNVNHKPSNTKVDKKVEPKSCDKTHTCPPCPAPEAAGGPSVFLFPPKPKDTLMISRTPEVTCVVVDVSHEDPEVKFNWYVDGVEVHNAKTKPREEQYNSTYRVVSVLTVLHQDWLNGKEYKCKVSNKALAAPIEKTISKAKGQPREPQVYTLPPSREEMTKNQVSLTCLVKGFYPSDIAVEWESNGQPENNYKTTPPVLDSDGSFFLYSKLTVDKSRWQQGNVFSCSVMHEALHNHYTQKSLSLSPGK", "light": "DIVLTQSPASLAVSLGERATISCRASESVDLYGTSFMHWYQQKPGQPPKLLIYRASNLESGVPDRFSGSGSRTDFTLTINPLQAEDVATYYCHQSSDELPWTFGGGTKVEIKRTVAAPSVFIFPPSDEQLKSGTASVVCLLNNFYPREAKVQWKVDNALQSGNSQESVTEQDSKDSTYSLSSTLTLSKADYEKHKVYACEVTHQGLSSPVTKSFNRGEC", "notes": "also called Ab24_AAA; 24_AAA"}},
  "key": {"[1]": {"molecular_target": "T1, hSIRPαV1D1 with histidine tag (human, UniProt P78324 31-147)", "T1 construct": "analyte of the Biacore experiments; also called first immunoglobulin-like domain of human SIRPα variant V1; not shown: histidine tag", "T1 sequence (P78324 31-147 limits assumed)": "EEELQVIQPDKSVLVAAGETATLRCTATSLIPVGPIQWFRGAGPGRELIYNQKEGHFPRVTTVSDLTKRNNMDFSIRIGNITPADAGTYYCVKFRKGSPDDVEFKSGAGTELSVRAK", "assay": "SPR (Biacore 3000), IgG captured, single analyte concentration 50 nM", "procedure": "(§1) Briefly, biosensor analysis was conducted at 25° C. in an HPS-EP buffer (10 mM HEPES, 150 mM NaCl, 3 mM EDTA, 0.005% polysorbate 20, 0.1% bovine serum albumin, pH 7.4) using a Biacore 3000 optical biosensor equipped with a CM5 sensor chip according to the manufacturer's protocol. The auto sampler was maintained at ambient temperature. Goat anti-human IgG capture antibody (Jackson Laboratories; 109-005-098) was immobilized on the four flow cells in each sensor chip using standard amine coupling chemistry. About 8000 resonance units (RU) of this antibody was immobilized on each flow cell. Flow cells 2, 3, and 4 were used to analyze captured anti-SIRPα antibodies (about 250 to 300 RU were captured on each of flow cells 2, 3, and 4), while flow cell 1 was used as the reference flow cell. The analytes tested were hSIRPαV1D1, hSIRPαV2D1, cynomolgus monkey SIRPαV1D1 (cSIRPαV1D1), cSIRPαV2D1, hSIRPβ1D1, and hSIRPγD1, each of which also included a histidine tag. The sequences of cSIRPαV1D1 and cSIRPαV2D2 are provided in SEQ ID NOs: 143 and 142, respectively. To avoid confusion, the differences between the amino acid sequences of cSIRPαV1D1 and cSIRPαV2D1 are not the same as the differences between the amino acid sequences of hSIRPαV1D1 and hSIRPαV2D1. […]\n(§2) In a separate experiment, KDs of additional variants of Ab11_G4 and Ab24_G4 were determined for binding to hSIRPαV1D1 and hSIRPαV2D1. […]"}, "[2]": {"molecular_target": "T2, hSIRPαV2D1 with histidine tag (human)", "T2 construct": "analyte of the Biacore experiments; also called first immunoglobulin-like domain of human SIRPα variant V2; not shown: histidine tag", "T2 sequence (chain, as listed by the source limits assumed)": "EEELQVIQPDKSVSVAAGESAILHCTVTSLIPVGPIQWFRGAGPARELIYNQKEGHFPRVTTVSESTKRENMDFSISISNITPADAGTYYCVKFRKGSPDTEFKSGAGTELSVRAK", "assay": "SPR (Biacore 3000), IgG captured, single analyte concentration 50 nM", "procedure": "as §1, §2"}},
  "data": [
    {"binder": "B1", "values": [
      {"measurement": "Kd", "setting": "[1]", "value": 19.4, "unit": "nM"},
      {"measurement": "Kd", "setting": "[2]", "value": 1.19, "unit": "nM"}
    ]}
  ]
}
